Results reported in paper PMC3779078 (Molecular reproduction and development, 2009).
Blank lines part the entries; values can stand above or below the molecule they belong to.

Tests used:
Experiment in all cases: PAGE under mildly denaturing conditions with Western blot
[1] = molecular target: Izumo 1 N-terminal domain (N), recombinant (mouse)
[2] = molecular target: Izumo domain of Izumo 3, recombinant (mouse)
[3] = molecular target: the molecule itself

stoichiometry N [1]: 2
Molecule: Izumo 1 N-terminal domain (N), recombinant (domain or fragment)

stoichiometry N [2]: 2
Molecule: Izumo domain of Izumo 3, recombinant (domain or fragment)

B1: Izumo 1 entire extracellular domain (N-Ig), recombinant (domain or fragment, mouse, UniProt Q9D9J7 22-319, looked up)
chain: CIKCDQFVTDALKTFENTYLNDHLPHDIHKNVMRMVNHEVSSFGVVTSAEDSYLGAVDENTLEQATWSFLKDLKRITDSDLKGELFIKELLWMLRHQKDIFNNLARQFQKEVLCPNKCGVMSQTLIWCLKCEKQLHICRKSLDCGERHIEVHRSEDLVLDCLLSWHRASKGLTDYSFYRVWENSSETLIAKGKEPYLTKSMVGPEDAGNYRCVLDTINQGHATVIRYDVTVLPPKHSEENQPPNIITQEEHETPVHVTPQTPPGQEPESELYPELHPELYPELIPTVAQNPEKKMKTR
stoichiometry N [3]: 2
